Results: patent US20180141989A1 (BOARD OF REGENTS OF THE UNIVERSITY OF OKLAHOMA, published 2018)
Where no end group is shown, it is not given here.

What was measured:
[1] = molecular target: MBP-RAMP2 ECD [L106R]-(GS)5-CLR ECD-H6 fusion protein (human) (UniProt O60895); experiment: FP competition vs FITC-AM W/W probe, purified ECD fusion
[2] = molecular target: T1, MBP-RAMP1 ECD-(GS)5-CLR ECD-H6 fusion protein (human, UniProt O60894 24-111; Q16602 29-144); experiment: as above
T1 construct: range 24-111;range 29-144; Tethered ECD fusion made in E. coli; used in the FP assay at 15 nM; also called MBP-hRAMP1.24-111-(Gly-Ser)5-hCLR.29-144-H6
T1 sequence (O60894 other isoform, or with tags, fused parts or gaps limits assumed, form in doubt): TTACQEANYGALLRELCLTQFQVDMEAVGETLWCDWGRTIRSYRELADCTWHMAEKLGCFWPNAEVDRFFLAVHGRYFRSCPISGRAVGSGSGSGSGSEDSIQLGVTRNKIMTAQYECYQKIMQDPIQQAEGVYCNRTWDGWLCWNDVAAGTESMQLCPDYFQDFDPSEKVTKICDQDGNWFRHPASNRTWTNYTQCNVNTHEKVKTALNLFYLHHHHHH
Experimental: (§1) Fluorescence polarization peptide binding assay. […] The reactions (50 μL) were incubated for 2 hours at room temperature to reach equilibrium, and the anisotropy was measured in black half-area 96-well plates using a BMG LABTECH's POLARstar® Omega plate reader (Ortenberg, Germany). The reaction buffer was 50 mM HEPES, pH 7.5, 150 mM NaCl, 0.5 mg/ml fatty acid-free BSA, 0.5 mM EDTA, 0.5 mM maltose. KI values were calculated using nonlinear regression fitting of the competition curves to the exact analytical equations of Roehrl et al. (Biochemistry (2004) 43:16056-66) using GraphPad Prism 5.0 (GraphPad Software, San Diego Calif.).
(§2) The large size difference between the MBP-RAMP ECD-CLR ECD fusion proteins (˜65 kDa) and the probe (˜2.5 kDa) ensures a significant anisotropy difference between bound and free states of the probe. […] Kd values for the probe at each of the tethered ECD fusion proteins were determined in equilibrium saturation binding experiments (data not shown), and KI values were determined for unlabeled peptides in equilibrium competition experiments (Table 1; FIGS. 2-5). The data were analyzed according to exact analytical equations using non-linear regression curve fitting in GraphPad Prism 5.0 (GraphPad Software) via user-defined equations.

[3] = molecular target: T1, MBP-RAMP1 ECD-(GS)5-CLR ECD-H6 fusion …; experiment: FP (anisotropy) competition: displaces FITC-Ahx-AM(37-52)NH2[S45W,Q50W] probe (7 nM) from MBP-RAMP1 ECD-(GS)5-CLR ECD-H6 (15 nM) [A-C) panel B]
Experimental: as §1
as §1, with “Single representative experiments conducted with duplicate samples are shown.” for “Fluorescence polarization peptide binding assay.”, “reactions” for “reactions (50 μL)”

[4] = molecular target: T1, MBP-RAMP1 ECD-(GS)5-CLR ECD-H6 fusion …; experiment: ratio of FP KI values at the two ECD complexes
Experimental: as §1, §2

[5] = molecular target: T1, MBP-RAMP1 ECD-(GS)5-CLR ECD-H6 fusion …; experiment: FP (anisotropy) competition: displaces FITC-Ahx-AM(37-52)NH2[S45W,Q50W] probe (7 nM) from MBP-RAMP1 ECD-(GS)5-CLR ECD-H6 (15 nM) [A-C) panel C]
Experimental: as §1
as §1, with “Single representative experiments conducted with duplicate samples are shown.” for “Fluorescence polarization peptide binding assay.”, “reactions” for “reactions (50 μL)”

[6] = molecular target: T1, MBP-RAMP1 ECD-(GS)5-CLR ECD-H6 fusion …; experiment: FP (anisotropy) competition: displaces FITC-Ahx-AM(37-52)NH2[S45W,Q50W] probe (7 nM) from MBP-RAMP1 ECD-(GS)5-CLR ECD-H6 (15 nM) [I-J) lower graph]
Experimental: as §1

[7] = molecular target: MBP-RAMP2 ECD [L106R]-(GS)5-CLR ECD-H6 fusion protein (human) (UniProt O60895); experiment: FP (anisotropy) competition: displaces FITC-Ahx-AM(37-52)NH2[S45W,Q50W] probe (7 nM) from MBP-RAMP2 ECD[L106R]-(GS)5-CLR ECD-H6 (110 nM) [I-K) panel I]
[8] = molecular target: T1, MBP-RAMP1 ECD-(GS)5-CLR ECD-H6 fusion …; experiment: FP (anisotropy) competition: displaces FITC-Ahx-AM(37-52)NH2[S45W,Q50W] probe (7 nM) from MBP-RAMP1 ECD-(GS)5-CLR ECD-H6 (15 nM) [F-H) panel H]
Experimental: as §1

[9] = molecular target: MBP-RAMP2 ECD [L106R]-(GS)5-CLR ECD-H6 fusion protein (human) (UniProt O60895); experiment: FP (anisotropy) competition: displaces FITC-Ahx-AM(37-52)NH2[S45W,Q50W] probe (7 nM) from MBP-RAMP2 ECD[L106R]-(GS)5-CLR ECD-H6 (110 nM) [I-K) panel J]
[10] = molecular target: T1, MBP-RAMP1 ECD-(GS)5-CLR ECD-H6 fusion …; experiment: FP (anisotropy) competition: displaces FITC-Ahx-AM(37-52)NH2[S45W,Q50W] probe (7 nM) from MBP-RAMP1 ECD-(GS)5-CLR ECD-H6 (15 nM) [I-J) upper graph]
Experimental: as §1

[11] = molecular target: T1, MBP-RAMP1 ECD-(GS)5-CLR ECD-H6 fusion …; experiment: FP (anisotropy) competition: displaces FITC-Ahx-AM(37-52)NH2[S45W,Q50W] probe (7 nM) from MBP-RAMP1 ECD-(GS)5-CLR ECD-H6 (15 nM) [A-C) panel C]; remark: listed apart in the source
Experimental: as §1

[12] = molecular target: T1, MBP-RAMP1 ECD-(GS)5-CLR ECD-H6 fusion …; experiment: FP (anisotropy) competition: displaces FITC-Ahx-AM(37-52)NH2[S45W,Q50W] probe (7 nM) from MBP-RAMP1 ECD-(GS)5-CLR ECD-H6 (15 nM) [D-E) panel E]
Experimental: as §1

[13] = molecular target: T1, MBP-RAMP1 ECD-(GS)5-CLR ECD-H6 fusion …; experiment: FP (anisotropy) competition: displaces FITC-Ahx-AM(37-52)NH2[S45W,Q50W] probe (7 nM) from MBP-RAMP1 ECD-(GS)5-CLR ECD-H6 (15 nM) [D-E) panel D]
Experimental: as §1

[14] = molecular target: T2, MBP-RAMP1 ECD-(GS)5-CTR ECD-H6 fusion protein (human, UniProt O60894 27-118; P30988 34-141, limits assumed); experiment: AlphaLISA competition vs Biotin-AC413 probe, purified AMY1 ECD fusion
T2 construct: extracellular domain; CTR-based proteins were produced in HEK293T cells (N-glycosylated); also called RAMP1-CTR ECD; RAMP1-CTR
T2 sequence (O60894 other isoform, or with tags, fused parts or gaps limits assumed): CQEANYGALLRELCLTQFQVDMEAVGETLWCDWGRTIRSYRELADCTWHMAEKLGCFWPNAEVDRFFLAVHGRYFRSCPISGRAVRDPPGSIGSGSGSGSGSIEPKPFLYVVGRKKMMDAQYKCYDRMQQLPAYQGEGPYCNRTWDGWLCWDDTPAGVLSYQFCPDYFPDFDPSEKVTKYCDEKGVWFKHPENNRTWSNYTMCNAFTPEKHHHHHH
Experimental: A single representative experiment conducted with duplicate samples is shown. […] The reactions were incubated for 5 hours at room temperature to reach equilibrium, and the luminescence was measured in white 384-well plates using a BMG LABTECH's POLARstar® Omega plate reader (Ortenberg, Germany). The reaction buffer was 50 mM MOPS, pH 7.4, 150 mM NaCl, 7 mg/ml fatty acid-free BSA and the streptavidin-coated donor beads and MBP-antibody coated acceptor beads were at 15 μg/ml each. IC₅₀ values were calculated using nonlinear regression fitting of the competition curves to a three-parameter, one-site competitive binding equation in GraphPad Prism 5.0 (GraphPad Software, San Diego Calif.).

Chain of MBP-RAMP2 ECD [L106R]-(GS)5-CLR ECD-H6 fusion protein (human) (O60895 other isoform, or with tags, fused parts or gaps L106R L106R): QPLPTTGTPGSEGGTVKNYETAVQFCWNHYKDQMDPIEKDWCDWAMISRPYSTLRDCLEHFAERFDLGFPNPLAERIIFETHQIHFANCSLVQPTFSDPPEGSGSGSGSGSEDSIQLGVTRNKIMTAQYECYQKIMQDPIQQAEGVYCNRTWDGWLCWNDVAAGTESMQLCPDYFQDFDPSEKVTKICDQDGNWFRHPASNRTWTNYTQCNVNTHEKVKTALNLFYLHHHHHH

Ki [1] [nM]	pKI [1]	Ki [2] [nM]	pKI [2]	Receptor Selectivity (fold, over RAMP2-CLR ECD) [4] [fold]	Binder	other results
–	–	2.95	8.53	–	FVPTDVGPFSF-NH2 [CGRP(27-37)NH2 [N31D, S34P, K35F, A36S]]	IC50 (read off the curve) [3]: ~20 nM
–	–	8.13	8.09	–	FVPTDVGPWAF-NH2 [CGRP(27-37)NH2 [N31D, S34P, K35W]]	IC50 (read off the curve) [3]: ~20 nM
324	6.49	1.32	8.88	245	FVPTDVGPWSY-NH2 [CGRP(27-37)NH2 [N31D, S34P, K35W, A36S, F37Y]]	IC50 (read off the curve) [5]: ~20 nM
14500	4.84	17.6	7.75	821	FVPTDTGPWGY-NH2 [CGRP(27-37)NH2 [N31D, V32T, S34P, K35W, A36G, F37Y]]	–
1660	5.78	70.8	7.15	23	DKDNVAPRSLISPWGY-NH2 [AM(37-52)NH2 [K46L, Q50W]]	IC50 (read off the curve) [11]: ~100 nM
16600	4.78	24	7.62	692	DKDNVAPRWWISPWGF-NH2 [AM(37-52)NH2 [S45W, K46W, Q50W, Y52F]]	IC50 (read off the curve) [12]: ~70 nM
12500	4.9	440	6.36	28	DKDNVAPRTWISPWGY-NH2 [AM(37-52)NH2[S45T, K46W, Q50W]]	–
7760	5.11	7.94	8.1	977	DKDNVAPRWMISPWGF-NH2 [AM(37-52)NH2 [S45W, K46M, Q50W, Y52F]]	IC50 (read off the curve) [12]: ~30 nM
4070	5.39	1.91	8.72	2130	DKDNVAPRWLISPWGF-NH2 [AM(37-52)NH2 [S45W, K46L, Q50W, Y52F]]	IC50 [14]: 16000 nM; IC50 (read off the curve) [13]: ~20 nM

The next lines start with the binder.

Binder	Ki [1] [nM]	pKI [1]	Ki [2] [nM]	pKI [2]	Receptor Selectivity (fold, over RAMP2-CLR ECD) [4] [fold]	other results
DKKNVAPRSKISPQGY-NH2 [AM(37-52)NH2 [D39K]]	6100	5.22	–	–	–	–
VKDNVAPRWLISPWGF-NH2 (also called AM(37-52)NH2 [D37V, S45W, K46L, Q50W, Y52F]) [AM(37-52) D37V/S45W/K46L/Q50W/Y52F]	–	–	–	–	–	IC50 (read off the curve) [6]: ~10 nM
DKDNVAPRRLISPWGY-NH2 (also called AM(37-52)NH2 [S45R, K46L, Q50W]) [AM(37-52) S45R/K46L/Q50W]	–	–	–	–	–	IC50 (read off the curve) [7]: 300 nM; IC50 (read off the curve) [8]: ~90 nM
DKDNVAPRRWLGPWGY-NH2 (also called AM(37-52)NH2 [S45R, K46W, I47L, S48G, Q50W]) [AM(37-52) S45R/K46W/I47L/S48G/Q50W]	–	–	–	–	–	IC50 (read off the curve) [9]: 1000 nM; IC50 (read off the curve) [10]: ~100 nM
DKDNVAPRRWISPWGY-NH2 (also called AM(37-52)NH2 [S45R, K46W, Q50W]) [AM(37-52) S45R/K46W/Q50W]	–	–	–	–	–	IC50 (read off the curve) [7]: 2000 nM; IC50 (read off the curve) [8]: ~300 nM
DKFNVAPRSLISPWGF-NH2 [AM(37-52)NH2 [D39F, K46L, Q50W, Y52F]]	30300	4.55	25	7.61	1210	IC50 (read off the curve) [13]: ~80 nM
DKDNVAPRRLIGPWGY-NH2 (also called AM(37-52)NH2 [S45R, K46L, S48G, Q50W]) [AM(37-52) S45R/K46L/S48G/Q50W]	–	–	–	–	–	IC50 (read off the curve) [9]: 90 nM; IC50 (read off the curve) [10]: ~20 nM
DKDNVAPRRWIGPWGY-NH2 (also called AM(37-52)NH2 [S45R, K46W, S48G, Q50W]) [AM(37-52) S45R/K46W/S48G/Q50W]	–	–	–	–	–	IC50 (read off the curve) [9]: 700 nM; IC50 (read off the curve) [10]: ~100 nM
DKFNVAPRSLISPWGY-NH2 [AM(37-52)NH2 [D39F, K46L, Q50W]]	1830	5.74	82.2	7.1	22	IC50 (read off the curve) [13]: ~200 nM
DKDNVAPRSLISPWGF-NH2 [AM(37-52)NH2 [K46L, Q50W, Y52F]]	89100	4.05	31.6	7.5	2820	IC50 (read off the curve) [11]: ~100 nM
